Data reported in publication PMC10076392, “Structure of the heterotrimeric membrane protein complex FtsB-FtsL-FtsQ of the bacterial divisome” (Nature Communications, 2023).

Molecular target: T1, FtsW-FtsI complex, His-tagged (E. coli strain K12, UniProt P0ABG4 1-414; P0AD68 1-577)
T1 construct: FtsW, transglycosylase, E. coli strain K12 (ATCC10798D-5), amplified from the genome with primers W-F and W-R; also called FtsWI; His-tagged FtsWI; source: E. coli C43, co-expressed from pETduet-FtsWI, purified (Ni-NTA, Superdex-200) in DDM
T1 sequence (looked up) 1: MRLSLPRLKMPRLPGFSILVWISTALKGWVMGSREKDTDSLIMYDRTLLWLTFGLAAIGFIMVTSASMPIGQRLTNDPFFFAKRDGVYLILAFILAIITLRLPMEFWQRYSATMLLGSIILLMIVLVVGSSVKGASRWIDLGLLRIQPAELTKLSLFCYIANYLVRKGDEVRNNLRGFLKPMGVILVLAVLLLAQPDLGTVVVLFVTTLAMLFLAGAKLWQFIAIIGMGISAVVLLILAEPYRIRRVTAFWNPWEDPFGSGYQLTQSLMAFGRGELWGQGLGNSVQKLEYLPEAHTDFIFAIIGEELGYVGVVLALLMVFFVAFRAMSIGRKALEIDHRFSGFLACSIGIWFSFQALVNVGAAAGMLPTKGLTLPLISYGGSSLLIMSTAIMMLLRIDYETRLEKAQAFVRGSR
T1 sequence (looked up) 2: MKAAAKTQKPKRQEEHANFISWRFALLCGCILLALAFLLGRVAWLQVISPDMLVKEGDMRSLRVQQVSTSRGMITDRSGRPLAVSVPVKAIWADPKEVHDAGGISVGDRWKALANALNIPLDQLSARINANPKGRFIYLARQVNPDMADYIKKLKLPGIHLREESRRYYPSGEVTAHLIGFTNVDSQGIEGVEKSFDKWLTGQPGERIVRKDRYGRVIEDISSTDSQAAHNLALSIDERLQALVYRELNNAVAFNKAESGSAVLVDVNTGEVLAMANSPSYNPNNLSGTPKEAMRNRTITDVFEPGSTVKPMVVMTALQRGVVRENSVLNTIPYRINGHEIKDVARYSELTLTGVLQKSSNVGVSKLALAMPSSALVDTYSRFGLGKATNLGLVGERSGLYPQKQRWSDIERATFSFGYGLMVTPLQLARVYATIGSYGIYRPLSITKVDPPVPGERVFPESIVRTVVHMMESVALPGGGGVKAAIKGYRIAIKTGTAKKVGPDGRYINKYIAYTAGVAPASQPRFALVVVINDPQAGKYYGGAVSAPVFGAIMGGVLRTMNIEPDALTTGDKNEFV
Test: BLI; His-tagged protein loaded at 50 μg/ml on HIS1K (Anti-Penta-HIS) biosensors; analyte in threefold dilutions 0.016-4 µM; 200 mM NaCl, 20 mM HEPES pH7.5, 0.1% DDM; 240 sec association and dissociation; Octet HTX
Conditions: both partners purified

B1: PBP1b (aa58-804) (enzyme, E. coli strain K12, UniProt P02919 58-804, looked up)
chain: KPRGKRGWLWLLLKLAIVFAVLIAIYGVYLDQKIRSRIDGKVWQLPAAVYGRMVNLEPDMTISKNEMVKLLEATQYRQVSKMTRPGEFTVQANSIEMIRRPFDFPDSKEGQVRARLTFDGDHLATIVNMENNRQFGFFRLDPRLITMISSPNGEQRLFVPRSGFPDLLVDTLLATEDRHFYEHDGISLYSIGRAVLANLTAGRTVQGASTLTQQLVKNLFLSSERSYWRKANEAYMALIMDARYSKDRILELYMNEVYLGQSGDNEIRGFPLASLYYFGRPVEELSLDQQALLVGMVKGASIYNPWRNPKLALERRNLVLRLLQQQQIIDQELYDMLSARPLGVQPRGGVISPQPAFMQLVRQELQAKLGDKVKDLSGVKIFTTFDSVAQDAAEKAAVEGIPALKKQRKLSDLETAIVVVDRFSGEVRAMVGGSEPQFAGYNRAMQARRSIGSLAKPATYLTALSQPKIYRLNTWIADAPIALRQPNGQVWSPQNDDRRYSESGRVMLVDALTRSMNVPTVNLGMALGLPAVTETWIKLGVPKDQLHPVPAMLLGALNLTPIEVAQAFQTIASGGNRAPLSALRSVIAEDGKVLYQSFPQAERAVPAQAAYLTLWTMQQVVQRGTGRQLGAKYPNLHLAGKTGTTNNNVDTWFAGIDGSTVTITWVGRDNNQPTKLYGASGAMSIYQRYLANQTPTPLNLVPPEDIADMGVDYDGNFVCSGGMRILPVWTSDPQSLCQQSEMQQQPS
notes: PBP1b, bi-functional peptidoglycan synthase, E. coli strain K12 (ATCC10798D-5), residues 58-804; Analyte in BLI; source: E. coli C43, from pET15b-PBP1b, purified (Ni-NTA, Superdex-200) in DDM
B1: binds.
